In PMC4355975, “PAT1 inversely regulates the surface Amyloid Precursor Protein level in mouse primary neurons” (BMC Neuroscience, 2015):

Columns and labels:
[1] = biological target: T1, Amyloid Precursor Protein (APP) (mouse (endogenous in primary cortical …, UniProt P12023 18-770)); experiment: co-IP; after cell surface biotinylation of mouse primary cortical neurons at 6 DIV (Cell surface Co-IP); APP precipitated with anti-APP Cter polyclonal antibody; blots for APP and PAT1; details: partners not purified
T1 construct: Amyloid precursor protein, endogenous in mouse primary cortical neurons; precipitated with the anti-APP Cter polyclonal antibody, detected with anti-APP-Nter A4; In the cell surface co-IP the surface pool was labelled with sulfo-NHS-biotin; source: endogenous, mouse primary cortical neurons (E16, Swiss strain), in lysate

[2] = biological target: T1, Amyloid Precursor Protein (APP); experiment: co-IP; total extracts of mouse primary cortical neurons at 6 DIV; APP precipitated with anti-APP Cter polyclonal antibody and protein A Sepharose; IP buffer Hepes 10 mM, NaCl 150 mM, CaCl2 2 mM, 1% Triton X 100, 4°C; blots for APP and PAT1; details: partners not purified

B1: PAT1 (Protein interacting with APP tail 1) (natural protein, UniProt Q9DAX9 1-585, looked up)
chain: MAAVELEWIPETLYNTAISAVVDNYIRSRRDIRSLPENIQFDVYYKLYQQGRLCQLGSEFCELEVFAKVLRALDKRHLLHHCFQALMDHGVKVASVLAYSFSRRCSYIAESDAAVKEKAIQVGFVLGGFLSDAGWYSDAEKVFLSCLQLCTLHDEMLHWFRAVECCVRLLHVRNGNCKYHLGEETFKLAQTYMDKLSKHGQQANRAALYGELCALLFAKSHYDEAYKWCVEAMKEITAGLPVKVVVDVLRQASKACVVKREFKKAEQLIKHAVYLARDHFGSKHPKYSDTLLDYGFYLLNVDNICQSVAIYQAALDIRQSVFGGKNIHVATAHEDLAYSSYVHQYSSGKFDNALFHAERAIGIITHILPEDHLLLASSKRVKALILEEIAIDCHNKETEQRLLQEAHDLHLSSLQLAKKAFGEFNVQTAKHYGNLGRLYQSMRKFKEAEEMHIKAIQIKEQLLGQEDYEVALSVGHLASLYNYDMNQYENAEKLYLRSIAIGKKLFGEGYSGLEYDYRGLIKLYNSIGNYEKVFEYHNVLSNWNRLRDRQYSVTDALEDVSSSPQSTEEVVQSFLMAQNVEGPSC
notes: PAT1 / APPBP2, endogenous in mouse primary cortical neurons; detected by blot with mAb26; also called Ara67; source: endogenous, mouse primary cortical neurons (E16, Swiss strain), in lysate
Question: Which “ratio of APP to PAT1 in the immunoprecipitate (arbitrary units)” value [1] does the source give for B1 here?
Answer: 6 AU

Question: And the “ratio of APP to PAT1 in the immunoprecipitate (arbitrary units)” value [2]?
Answer: 2.7 AU
